Legend:
Assay in all cases: ELISA: SEAP-His proteins (1 nM) captured on anti-6-His antibody, antibody A 10 µg/mL with human IgG 100 µg/mL, HRP anti-mouse IgG, OD450 as % of human EphA4-SEAP-His
[1] = biological target: T1, human EphB6 extracellular region-SEAP-His protein (human, UniProt O15197 32-594)
T1 construct: extracellular domain; also called Eph receptor extracellular region-SEAP-His protein; not shown: secretory alkaline phosphatase (SEAP); histidine tag
T1 sequence (looked up): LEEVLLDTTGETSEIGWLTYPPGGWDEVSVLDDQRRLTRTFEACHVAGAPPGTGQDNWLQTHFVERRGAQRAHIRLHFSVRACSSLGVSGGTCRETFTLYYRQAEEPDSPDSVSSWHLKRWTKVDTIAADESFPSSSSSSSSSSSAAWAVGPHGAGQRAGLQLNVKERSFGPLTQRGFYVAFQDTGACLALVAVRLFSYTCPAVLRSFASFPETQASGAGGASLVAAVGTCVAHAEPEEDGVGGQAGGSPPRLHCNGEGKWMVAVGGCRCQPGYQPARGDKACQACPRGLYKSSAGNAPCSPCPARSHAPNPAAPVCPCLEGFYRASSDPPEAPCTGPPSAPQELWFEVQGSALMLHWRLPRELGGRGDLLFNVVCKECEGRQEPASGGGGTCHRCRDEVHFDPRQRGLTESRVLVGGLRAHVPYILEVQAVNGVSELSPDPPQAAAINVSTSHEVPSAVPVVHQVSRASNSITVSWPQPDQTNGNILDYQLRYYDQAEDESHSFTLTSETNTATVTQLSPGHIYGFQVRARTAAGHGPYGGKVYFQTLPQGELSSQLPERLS
Method: (§1) Rabbit anti-6-His antibodies (Bethel Laboratories) were coated onto the wells of a 96-well plate (Nunc). After incubating at 4° C. overnight, the wells were blocked at room temperature for 1 hour by 1% Block Ace (DS Pharma Biomedical). After washing 3 times with 0.05% Tween 20/PBS (Thermo […]), each Eph receptor of human extracellular region-SEAP-His protein (final concentration 1 nM) was seeded into each well, and incubated at room temperature for 1 hour. After washing 3 times, human IgG solution (100 μg/mL, Mitsubishi Pharma Corporation) and antibody A (10 μg/mL) were supplemented to the wells, and incubated at room temperature for 1 hour. Horseradish peroxidase-labeled donkey anti-mouse IgG antibody (Jackson ImmunoResearch Laboratories) was added, and incubated at room, temperature for 1 hour. After washing 3 times, TMBZ (3,3′,5,5′-tetramethylbenzidine, Sigma) solution was added to the wells, and upon confirmation of modest coloring, an equal amount of quenching solution (1 N H₂SO₄, Wako Pure Chemicals) was added to the wells, and absorbance at 450 nm was read by a microplate reader (PerkinElmer).

[2] = biological target: T2, human EphA10 extracellular region-SEAP-His protein (human, UniProt Q5JZY3 34-565)
T2 construct: extracellular domain; also called Eph receptor extracellular region-SEAP-His protein; not shown: secretory alkaline phosphatase (SEAP); histidine tag
T2 sequence (looked up): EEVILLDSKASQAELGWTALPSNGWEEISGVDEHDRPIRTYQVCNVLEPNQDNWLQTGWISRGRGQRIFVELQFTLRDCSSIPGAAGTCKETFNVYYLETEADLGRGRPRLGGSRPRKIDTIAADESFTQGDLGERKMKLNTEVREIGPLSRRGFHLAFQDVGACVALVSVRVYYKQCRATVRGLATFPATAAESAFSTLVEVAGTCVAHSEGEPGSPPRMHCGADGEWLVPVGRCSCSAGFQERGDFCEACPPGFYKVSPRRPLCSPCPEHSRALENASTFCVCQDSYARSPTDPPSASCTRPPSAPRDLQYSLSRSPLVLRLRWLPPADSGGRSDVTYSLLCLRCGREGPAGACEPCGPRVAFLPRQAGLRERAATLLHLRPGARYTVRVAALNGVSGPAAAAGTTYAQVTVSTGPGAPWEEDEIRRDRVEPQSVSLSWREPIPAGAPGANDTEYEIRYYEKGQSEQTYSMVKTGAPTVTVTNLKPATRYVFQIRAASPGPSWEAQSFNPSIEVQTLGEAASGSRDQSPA
Method: as §1

[3] = biological target: T3, human EphA8 extracellular region-SEAP-His protein (human, UniProt P29322 28-542)
T3 construct: extracellular domain; also called Eph receptor extracellular region-SEAP-His protein; not shown: secretory alkaline phosphatase (SEAP); histidine tag
T3 sequence (looked up): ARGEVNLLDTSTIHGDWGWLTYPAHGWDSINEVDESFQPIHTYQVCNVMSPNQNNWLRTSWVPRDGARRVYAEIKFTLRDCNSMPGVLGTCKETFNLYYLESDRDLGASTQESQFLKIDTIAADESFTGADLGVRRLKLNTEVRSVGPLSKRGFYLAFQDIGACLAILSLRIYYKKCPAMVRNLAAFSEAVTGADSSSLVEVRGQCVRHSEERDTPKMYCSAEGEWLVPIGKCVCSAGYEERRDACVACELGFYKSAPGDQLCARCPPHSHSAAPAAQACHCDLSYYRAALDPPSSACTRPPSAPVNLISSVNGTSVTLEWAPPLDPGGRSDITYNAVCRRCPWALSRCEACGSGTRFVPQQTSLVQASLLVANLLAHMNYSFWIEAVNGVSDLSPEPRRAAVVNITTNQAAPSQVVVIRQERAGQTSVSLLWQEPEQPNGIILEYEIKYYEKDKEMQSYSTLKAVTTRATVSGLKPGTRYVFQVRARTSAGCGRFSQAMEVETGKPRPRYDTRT
Method: as §1

Measured: binding result

B1: mouse anti-EphA4 monoclonal antibody (antibody A) (antibody, mouse IgG1, kappa, V domains shown)
VH: QVQLKQSGPSLVQPSQSLSITCTVSGFSLTRYGVHWVRQSPGKGLEWLGVIWRGGSTDYNAAFMSRLSITKDNSKSQVFFKMNSLQADDTAIYYCAKESLFGVYYDYGYYSMDYWGQGTSVTVSS
VL: DIQMTQSPSSLSASLGERVSLTCRASQEISGYLSWLQQKPDGTIKRLIYAASTLDSGVPKRFSGSRSGSDYSLTISSLESEDFADYYCLQYASYPLTFGAGTKLELKR
notes: purified from hybridoma supernatant
no binding (tested: 10 µg/mL): all assays above

Reference: patent US20240010735A1 (EISAI R AND D MANAGEMENT, published 2024)
